38 sequences from the supplement of paper PMC7877785 can be followed below.

The nature of this series: self-splicing fitness, log relative to wild type (ln ratio); higher = more splicing; Tetrahymena group I intron in knt gene, E. coli kanamycin selection, DiMSum; sequences stand for … in CUCUCU…GGAGGGAAAAGUUAUCAGGCAUGCACCUGGUAGCUAGUCUUUAAACCAAUAGAUUGCAUCGGUUUAAAAGGCAAGACCGUCAAAUUGCGGGAAAGGGGUCAACAGCCGUUCAGUACCAAGUCUCAGGGGAAACUUUGAGAUGGCCUUGCAAAGGGUAUGGUAAUAAGCUGACGGACAUGGUCCUAACCACGCAGCCAAGUCCUAAGUCAACAGAUCUUCUGUUGAUAUGGAUGCAGUUCACAGACUAAAUGUCGGUCGGGGAAGAUGUAUUCUUCUCAUAAGAUAUAGUCGGACCUCUCCUUAAUGGGAGCUAGCGGAUGAAGUGAUGCAACACUGGAGCCGCUGGGAACUAAUUUGUAUGCGAAAGUAUAUUGAUUAGUUUUGGAGUACUCGUGGUCG
The method, boiled down: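 Library with all eight P1ex-region intron nucleotides randomised, intron inside the knt kanamycin-resistance gene on pET-22b(+), in E. coli BL21(DE3). Cells grew overnight at 37°C or 30°C on LB agar with or without 25 μg/mL kanamycin (plus 100 μg/mL carbenicillin, 50 μM IPTG, 0.2% rhamnose), in six replicate transformations. Pooled colonies were amplicon-sequenced on Illumina HiSeq 2500. DiMSum fitness is the error-weighted combination of wild-type-normalised replicate fold changes, kanamycin versus none.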

± gives the uncertainty stated by the source.

Take CAUAAGCAAUAUUACGACUC: the “self-splicing fitness (ln)” value is, setting by setting: (30 °C) -3.48 ± 0.34; (37 °C) -0.925 ± 0.14.
Turning to CGCGAGCAAUAUUACGAAUA, the “self-splicing fitness (ln)” value runs as follows: (30 °C) -2.84 ± 0.35; (37 °C) -2.25 ± 0.38.
AUCAAGCAAUAUUACGAAAC: the “self-splicing fitness (ln)” value is, setting by setting: (30 °C) -3.16 ± 0.2; (37 °C) -3.17 ± 0.28.
Regarding UAUUAGCAAUAUUACGCAAG, the “self-splicing fitness (ln)” value was -2.29 ± 0.16 (30 °C) and -1.8 ± 0.18 (37 °C).
In the case of GAACAGCAAUAUUACGCUCG, the “self-splicing fitness (ln)” value is, setting by setting: (30 °C) -0.797 ± 0.1; (37 °C) -0.128 ± 0.15.
Consider GUUUAGCAAUAUUACGGCAC, for which the “self-splicing fitness (ln)” value was -0.0568 ± 0.4 (30 °C) and -0.227 ± 0.43 (37 °C).
For GAUUAGCAAUAUUACGUAUC, the “self-splicing fitness (ln)” value (37 °C) was -2.77 ± 0.36.
Take GAGGAGCAAUAUUACGAUCA: the “self-splicing fitness (ln)” value was -2.5 ± 0.22 (30 °C) and -1.59 ± 0.19 (37 °C).
The corresponding values for UAGAAGCAAUAUUACGUCUU are -1.18 ± 0.072 and -0.782 ± 0.085.
Turning to ACAUAGCAAUAUUACGUAGA, the “self-splicing fitness (ln)” value was -3.71 ± 0.15 (30 °C) and -1.62 ± 0.12 (37 °C).
For GAGAAGCAAUAUUACGAAAG, in that order: -4.36 ± 0.32 and -1.5 ± 0.2.
UUCAAGCAAUAUUACGGACC: the “self-splicing fitness (ln)” value (30 °C) was -2.45 ± 0.25 and the “self-splicing fitness (ln)” value (37 °C) was -2.97 ± 0.21.
For the sequence UGUAAGCAAUAUUACGAUCA, the “self-splicing fitness (ln)” value was determined as 0.319 ± 0.079 (30 °C) and 0.535 ± 0.13 (37 °C).
With UUGCAGCAAUAUUACGGGUU, the “self-splicing fitness (ln)” value by setting is: (30 °C) -3.77 ± 0.25; (37 °C) -2.15 ± 0.21.
As to UUUUAGCAAUAUUACGUAAU, the “self-splicing fitness (ln)” value runs as follows: (30 °C) -3.62 ± 0.28; (37 °C) -1.6 ± 0.22.
As for CAAUAGCAAUAUUACGCGUG, the “self-splicing fitness (ln)” value by setting is: (30 °C) -1.93 ± 0.092; (37 °C) -1.44 ± 0.095.
In the case of UUUAAGCAAUAUUACGCUGA, the “self-splicing fitness (ln)” value by setting is: (30 °C) -2.47 ± 0.2; (37 °C) -0.978 ± 0.15.
For CAUAAGCAAUAUUACGGUUU, in that order: -4.02 ± 0.19 and -2.69 ± 0.17.
CUGCAGCAAUAUUACGGAAA: the “self-splicing fitness (ln)” value was -2.27 ± 0.21 (30 °C) and -1.56 ± 0.38 (37 °C).
The corresponding values for GAUGAGCAAUAUUACGACCA are -3.85 ± 0.35 and -3.8 ± 0.39.
Turning to UGACAGCAAUAUUACGAGUA, the “self-splicing fitness (ln)” value (30 °C) was -2.37 ± 0.17 and the “self-splicing fitness (ln)” value (37 °C) is -0.712 ± 0.11.
In the case of CAGAAGCAAUAUUACGCGUG, the “self-splicing fitness (ln)” value runs as follows: (30 °C) -4.79 ± 0.27; (37 °C) -2.62 ± 0.12.
With CACCAGCAAUAUUACGAAGA, the “self-splicing fitness (ln)” value was -3.26 ± 0.21 (30 °C) and -1.81 ± 0.2 (37 °C).
Turning to GAUAAGCAAUAUUACGAUGA, the “self-splicing fitness (ln)” value runs as follows: (30 °C) -0.666 ± 0.097; (37 °C) -0.376 ± 0.11.
The corresponding values for CGGAAGCAAUAUUACGACAA are -2.42 ± 0.31 and -2.2 ± 0.33.
The corresponding values for ACAAAGCAAUAUUACGCGUA are -1.4 ± 0.099 and -0.512 ± 0.097.
Regarding AGUUAGCAAUAUUACGUAGG, the “self-splicing fitness (ln)” value (30 °C) was -4.63 ± 0.32.
Take CGAAAGCAAUAUUACGGUCC: the “self-splicing fitness (ln)” value (30 °C) was -0.283 ± 0.087 and the “self-splicing fitness (ln)” value (37 °C) was -0.129 ± 0.13.
For GCCGAGCAAUAUUACGCAAG, in that order: -2.91 ± 0.44 and -1.25 ± 0.36.
In the case of AUUGAGCAAUAUUACGACAG, the “self-splicing fitness (ln)” value (30 °C) is -3.48 ± 0.26 and the “self-splicing fitness (ln)” value (37 °C) was -2.18 ± 0.21.
For UAAAAGCAAUAUUACGACGG, the “self-splicing fitness (ln)” value was 0.0981 ± 0.087 (30 °C) and -0.342 ± 0.13 (37 °C).
The corresponding values for CGCUAGCAAUAUUACGAUAG are -1.9 ± 0.065 and -0.433 ± 0.085.
For CAAUAGCAAUAUUACGGAUA, in that order: -3.03 ± 0.48 and -2.77 ± 0.35.
The corresponding values for CCUGAGCAAUAUUACGCCGA are -3.1 ± 0.39 and -3.2 ± 0.4.
Regarding UCACAGCAAUAUUACGAUUG, the “self-splicing fitness (ln)” value is, setting by setting: (30 °C) -2.97 ± 0.12; (37 °C) -1.34 ± 0.11.
For GGCUAGCAAUAUUACGAACG, in that order: -0.636 ± 0.066 and -0.168 ± 0.094.
In the case of CCUUAGCAAUAUUACGGAGA, the “self-splicing fitness (ln)” value by setting is: (30 °C) -3.46 ± 0.37; (37 °C) -2.41 ± 0.42.
As for CCGCAGCAAUAUUACGCGAC, the “self-splicing fitness (ln)” value runs as follows: (30 °C) -2.84 ± 0.17; (37 °C) -2.09 ± 0.26.
